The target of assay [1] is T1, human calcitonin receptor (human, UniProt P30988 25-474).
T1 construct: whole, on cells; Membranes of a BHK tk'ts 13 cell line stably transfected with the human calcitonin receptor; also called hCTR; hCT
T1 sequence (looked up): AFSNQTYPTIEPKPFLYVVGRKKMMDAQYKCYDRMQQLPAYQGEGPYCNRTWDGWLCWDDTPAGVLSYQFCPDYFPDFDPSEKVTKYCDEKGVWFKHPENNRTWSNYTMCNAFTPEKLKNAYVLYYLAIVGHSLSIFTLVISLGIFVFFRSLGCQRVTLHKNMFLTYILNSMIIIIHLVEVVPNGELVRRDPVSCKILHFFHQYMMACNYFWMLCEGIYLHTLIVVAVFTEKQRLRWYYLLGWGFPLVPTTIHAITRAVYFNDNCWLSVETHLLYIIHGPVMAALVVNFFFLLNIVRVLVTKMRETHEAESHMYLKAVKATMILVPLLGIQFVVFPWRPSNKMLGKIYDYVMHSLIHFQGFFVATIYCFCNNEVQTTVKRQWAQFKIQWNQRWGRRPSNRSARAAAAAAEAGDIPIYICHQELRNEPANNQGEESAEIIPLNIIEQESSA
Description: IC50 at hCTR divided by IC50 at hAmylin-R (reference). A digest of the protocol: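 Scintillation proximity competition binding on cell membranes at 35 ng/μL with SPA beads, in 50 mM Hepes pH 7.4, 1 mM CaCl2, 5 mM MgCl₂, 0.1% OA, 0.02% Tween20. Incubated 120 min at 25° C with shaking. IC₅₀ from one-site competition fit.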

The target in assay [2] is T2, rat calcitonin receptor (rat, UniProt P32214 25-516).
T2 construct: whole, on cells; Membranes of BHK tk'ts 13 cells transiently transfected with the rat calcitonin receptor; also called rCTR; rat calcitonin (a) receptor
T2 sequence (looked up): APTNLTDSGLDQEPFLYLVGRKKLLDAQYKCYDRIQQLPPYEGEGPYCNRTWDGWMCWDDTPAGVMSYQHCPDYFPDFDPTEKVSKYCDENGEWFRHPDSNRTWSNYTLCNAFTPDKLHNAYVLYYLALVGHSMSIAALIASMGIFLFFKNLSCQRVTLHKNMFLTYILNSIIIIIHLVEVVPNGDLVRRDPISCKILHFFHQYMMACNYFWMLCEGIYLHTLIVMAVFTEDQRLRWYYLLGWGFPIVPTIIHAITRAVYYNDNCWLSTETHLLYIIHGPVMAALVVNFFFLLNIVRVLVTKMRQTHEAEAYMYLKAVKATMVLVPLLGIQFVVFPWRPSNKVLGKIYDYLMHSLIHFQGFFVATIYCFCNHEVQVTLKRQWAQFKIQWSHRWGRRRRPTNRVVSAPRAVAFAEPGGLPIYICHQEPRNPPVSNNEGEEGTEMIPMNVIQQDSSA
Description: IC50 at rCTR divided by IC50 at rAmylin-R (reference).

Assay [3] addresses T2, rat calcitonin receptor. In words: SPA competition vs 125I-calcitonin, membranes with rat CTR (Assay VIII).
Assay [4] concerns the target T3, rat amylin receptor (rat calcitonin receptor + rat RAMP 3) (rat, UniProt P32214 25-516; Q9JJ73 23-147).
T3 construct: whole, on cells; Membranes of BHK tk'ts 13 cells transiently transfected with the rat calcitonin receptor and rat RAMP 3; also called rAmylin-R; rat amylin 3(a) receptor
T3 sequence (looked up) 1: T2 sequence (looked up)
T3 sequence (looked up) 2: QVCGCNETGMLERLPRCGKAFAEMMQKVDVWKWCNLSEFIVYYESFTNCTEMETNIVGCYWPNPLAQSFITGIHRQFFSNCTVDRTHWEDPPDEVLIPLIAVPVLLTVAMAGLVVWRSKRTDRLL
Description: SPA competition vs 125I-rat amylin, membranes with rat CTR + rat RAMP3 (Assay VI).

Numbered stars: 1 amine (or outer) side, 2 acyl side, 3 side chain; on linkers, the order of the positions; unused ones are H or OH. Bridge positions count the residues as written; N and C are the ends. Side chains are listed from the residue outwards. Ends that are not written are not given here. * marks the point of attachment. C20 diacid = O=C(O)CCCCCCCCCCCCCCCCCCC(=O)*; γGlu = O=C(O)[C@H](CCC(=O)[*:2])N[*:1]; AEEA = NCCOCCOCC(=O)O

B1: N^α1-[(4S)-4-carboxy-4-(19-carboxynonadecanoylamino)butanoyl]-[Glu14,Arg17,Pro21,Pro28,Glu35]-h-amylin (peptide)
peptide: {C20 diacid-γGlu}-KCNTATCATQRLAEFLRHSSPNFGAILPSTNVGSETY-NH2
modifications: disulfide 2-7
notes: modifications are with respect to human amylin; also called compound 33
In the case of B1, the “Ratio hCT/hAmylin binding” value in assay [1] stood at 3.9. Further, the “Ratio rCT/rAmylin binding” value in assay [2] is 12.6. Further, the half-inhibitory concentration (IC50) (usually the midpoint of a concentration-inhibition curve) in assay [3] amounted to 28.9 nM; in assay [4], 2.29 nM.

B2: N^ε1-[2-[2-[2-[[2-[2-[2-[[(4S)-4-carboxy-4-(19-carboxynonadecanoylamino)butanoyl]amino]ethoxy]ethoxy]acetyl]amino]ethoxy]ethoxy]acetyl]-[Arg17,Pro21,Pro27,Glu35 … (peptide)
peptide: K([AEEA-AEEA-γGlu-C20 diacid])CNTATCATQRLANFLRHSSPNFGAIPSSTNVGSETY-NH2
modifications: disulfide 2-7; N-terminus assumed
SMILES: CC[C@H](C)[C@H](NC(=O)[C@H](C)NC(=O)CNC(=O)[C@H](Cc1ccccc1)NC(=O)[C@H](CC(N)=O)NC(=O)[C@@H]1CCCN1C(=O)[C@H](CO)NC(=O)[C@H](CO)NC(=O)[C@H](Cc1c[nH]cn1)NC(=O)[C@H](CCCNC(=N)N)NC(=O)[C@H](CC(C)C)NC(=O)[C@H](Cc1ccccc1)NC(=O)[C@H](CC(N)=O)NC(=O)[C@H](C)NC(=O)[C@H](CC(C)C)NC(=O)[C@H](CCCNC(=N)N)NC(=O)[C@H](CCC(N)=O)NC(=O)[C@@H](NC(=O)[C@H](C)NC(=O)[C@@H]1CSSC[C@H](NC(=O)[C@@H](N)CCCCNC(=O)COCCOCCNC(=O)COCCOCCNC(=O)CC[C@H](NC(=O)CCCCCCCCCCCCCCCCCCC(=O)O)C(=O)O)C(=O)N[C@@H](CC(N)=O)C(=O)N[C@@H]([C@@H](C)O)C(=O)N[C@@H](C)C(=O)N[C@@H]([C@@H](C)O)C(=O)N1)[C@@H](C)O)C(=O)N1CCC[C@H]1C(=O)N[C@@H](CO)C(=O)N[C@@H](CO)C(=O)N[C@H](C(=O)N[C@@H](CC(N)=O)C(=O)N[C@H](C(=O)NCC(=O)N[C@@H](CO)C(=O)N[C@@H](CCC(=O)O)C(=O)N[C@H](C(=O)N[C@@H](Cc1ccc(O)cc1)C(N)=O)[C@@H](C)O)C(C)C)[C@@H](C)O
notes: modifications are with respect to human amylin; also called compound 25
Consider B2, for which the “Ratio hCT/hAmylin binding” value in assay [1] was determined as 56.5. For the same molecule, in assay [2], the “Ratio rCT/rAmylin binding” value was 37.7. Also, the values for the concentration for half-maximal inhibition (IC50) in assay [3] and in assay [4] were 131 nM and 3.48 nM, respectively.

B3: N^α1-[(4S)-4-carboxy-4-(19-carboxynonadecanoylamino)butanoyl]-[His14,Arg17,Pro21,Pro27,Glu35]-h-amylin (peptide)
peptide: {C20 diacid-γGlu}-KCNTATCATQRLAHFLRHSSPNFGAIPSSTNVGSETY-NH2
modifications: disulfide 2-7
SMILES: CC[C@H](C)[C@H](NC(=O)[C@H](C)NC(=O)CNC(=O)[C@H](Cc1ccccc1)NC(=O)[C@H](CC(N)=O)NC(=O)[C@@H]1CCCN1C(=O)[C@H](CO)NC(=O)[C@H](CO)NC(=O)[C@H](Cc1c[nH]cn1)NC(=O)[C@H](CCCNC(=N)N)NC(=O)[C@H](CC(C)C)NC(=O)[C@H](Cc1ccccc1)NC(=O)[C@H](Cc1c[nH]cn1)NC(=O)[C@H](C)NC(=O)[C@H](CC(C)C)NC(=O)[C@H](CCCNC(=N)N)NC(=O)[C@H](CCC(N)=O)NC(=O)[C@@H](NC(=O)[C@H](C)NC(=O)[C@@H]1CSSC[C@H](NC(=O)[C@H](CCCCN)NC(=O)CC[C@H](NC(=O)CCCCCCCCCCCCCCCCCCC(=O)O)C(=O)O)C(=O)N[C@@H](CC(N)=O)C(=O)N[C@@H]([C@@H](C)O)C(=O)N[C@@H](C)C(=O)N[C@@H]([C@@H](C)O)C(=O)N1)[C@@H](C)O)C(=O)N1CCC[C@H]1C(=O)N[C@@H](CO)C(=O)N[C@@H](CO)C(=O)N[C@H](C(=O)N[C@@H](CC(N)=O)C(=O)N[C@H](C(=O)NCC(=O)N[C@@H](CO)C(=O)N[C@@H](CCC(=O)O)C(=O)N[C@H](C(=O)N[C@@H](Cc1ccc(O)cc1)C(N)=O)[C@@H](C)O)C(C)C)[C@@H](C)O
notes: modifications are with respect to human amylin; also called compound 30
As for B3, in assay [1], the “Ratio hCT/hAmylin binding” value was 23.6. Moreover, in assay [2], the “Ratio rCT/rAmylin binding” value amounted to 36.1. The concentration for half-maximal inhibition (IC50) in assay [3] amounted to 114 nM; in assay [4] it was 3.14 nM.

B4: N^ε1-[2-[2-[2-[[(4S)-4-carboxy-4-(19-carboxynonadecanoylamino)butanoyl]amino]ethoxy]ethoxy]acetyl]-[Arg17,Pro21,Pro27,Glu35]-h-amylin (peptide)
peptide: K([AEEA-γGlu-C20 diacid])CNTATCATQRLANFLRHSSPNFGAIPSSTNVGSETY-NH2
modifications: disulfide 2-7; N-terminus assumed
SMILES: CC[C@H](C)[C@H](NC(=O)[C@H](C)NC(=O)CNC(=O)[C@H](Cc1ccccc1)NC(=O)[C@H](CC(N)=O)NC(=O)[C@@H]1CCCN1C(=O)[C@H](CO)NC(=O)[C@H](CO)NC(=O)[C@H](Cc1c[nH]cn1)NC(=O)[C@H](CCCNC(=N)N)NC(=O)[C@H](CC(C)C)NC(=O)[C@H](Cc1ccccc1)NC(=O)[C@H](CC(N)=O)NC(=O)[C@H](C)NC(=O)[C@H](CC(C)C)NC(=O)[C@H](CCCNC(=N)N)NC(=O)[C@H](CCC(N)=O)NC(=O)[C@@H](NC(=O)[C@H](C)NC(=O)[C@@H]1CSSC[C@H](NC(=O)[C@@H](N)CCCCNC(=O)COCCOCCNC(=O)CC[C@H](NC(=O)CCCCCCCCCCCCCCCCCCC(=O)O)C(=O)O)C(=O)N[C@@H](CC(N)=O)C(=O)N[C@@H]([C@@H](C)O)C(=O)N[C@@H](C)C(=O)N[C@@H]([C@@H](C)O)C(=O)N1)[C@@H](C)O)C(=O)N1CCC[C@H]1C(=O)N[C@@H](CO)C(=O)N[C@@H](CO)C(=O)N[C@H](C(=O)N[C@@H](CC(N)=O)C(=O)N[C@H](C(=O)NCC(=O)N[C@@H](CO)C(=O)N[C@@H](CCC(=O)O)C(=O)N[C@H](C(=O)N[C@@H](Cc1ccc(O)cc1)C(N)=O)[C@@H](C)O)C(C)C)[C@@H](C)O
notes: modifications are with respect to human amylin; also called compound 26
Regarding B4, the “Ratio hCT/hAmylin binding” value in assay [1] came to 47.5. Further, in assay [2], the “Ratio rCT/rAmylin binding” value is 309. The IC50 came to 152 nM in assay [3] and 0.491 nM in assay [4].

B5: N^α1N^α1-[(4S)-4-carboxy-4-(19-carboxynonadecanoylamino)butanoyl]-[Glu14,Arg17,Pro21,Pro27,Glu35]-h-amylin (peptide)
peptide: {C20 diacid-γGlu}-KCNTATCATQRLAEFLRHSSPNFGAIPSSTNVGSETY-NH2
modifications: disulfide 2-7
SMILES: CC[C@H](C)[C@H](NC(=O)[C@H](C)NC(=O)CNC(=O)[C@H](Cc1ccccc1)NC(=O)[C@H](CC(N)=O)NC(=O)[C@@H]1CCCN1C(=O)[C@H](CO)NC(=O)[C@H](CO)NC(=O)[C@H](Cc1c[nH]cn1)NC(=O)[C@H](CCCNC(=N)N)NC(=O)[C@H](CC(C)C)NC(=O)[C@H](Cc1ccccc1)NC(=O)[C@H](CCC(=O)O)NC(=O)[C@H](C)NC(=O)[C@H](CC(C)C)NC(=O)[C@H](CCCNC(=N)N)NC(=O)[C@H](CCC(N)=O)NC(=O)[C@@H](NC(=O)[C@H](C)NC(=O)[C@@H]1CSSC[C@H](NC(=O)[C@H](CCCCN)NC(=O)CC[C@H](NC(=O)CCCCCCCCCCCCCCCCCCC(=O)O)C(=O)O)C(=O)N[C@@H](CC(N)=O)C(=O)N[C@@H]([C@@H](C)O)C(=O)N[C@@H](C)C(=O)N[C@@H]([C@@H](C)O)C(=O)N1)[C@@H](C)O)C(=O)N1CCC[C@H]1C(=O)N[C@@H](CO)C(=O)N[C@@H](CO)C(=O)N[C@H](C(=O)N[C@@H](CC(N)=O)C(=O)N[C@H](C(=O)NCC(=O)N[C@@H](CO)C(=O)N[C@@H](CCC(=O)O)C(=O)N[C@H](C(=O)N[C@@H](Cc1ccc(O)cc1)C(N)=O)[C@@H](C)O)C(C)C)[C@@H](C)O
notes: modifications are with respect to human amylin; also called compound 22
Consider B5, for which, in assay [1], the “Ratio hCT/hAmylin binding” value was 12.3. Also, in assay [2], the “Ratio rCT/rAmylin binding” value worked out at 28.5. The 50% inhibitory concentration (IC50) is 62.5 nM in assay [3] and 2.19 nM in assay [4].

Source of the values: US20140087995A1 (published 2014).
